Reference: publication PMC7015811

Tests used:
[1] = target: chCALHM1 hCALHM2 chimera (chicken | human) (UniProt Q9HA72); experiment: cryo-EM structure
chicken CALHM1 (chicken) = experiment: cryo-EM structure

Row | stoichiometry N [1] | stoichiometry N (chicken CALHM1 (chicken)) | Substance
1 | 11 | – | chCALHM1 hCALHM2 chimera (from UniProt Q9HA72 205-323)
2 | – | 8 | chicken CALHM1 (natural protein)
